Test results: patent US20230272045A1 (MONASH UNIVERSITY, published 2023)
Where no end group is shown, it is not given here.

Legend:
human plasma fibronectin [1] = target: T1, human plasma fibronectin (human, UniProt P02751-8 32-2296, limits assumed); test: ELISA of fragments
T1 construct: Coated on ELISA plates at 100 nM; also called Fn

human vitronectin [2] = target: T2, human vitronectin (human, UniProt P04004 20-478); test: ELISA of fragments
T2 construct: Coated on ELISA plates at 100 nM; also called Vn

human fibrinogen [3] = target: T3, human fibrinogen (human, UniProt P02671 20-644; P02675 31-491; P02679 27-437, limits assumed); test: ELISA of fragments
T3 construct: Coated on ELISA plates at 100 nM; also called Fg
T3 sequence (looked up) 1: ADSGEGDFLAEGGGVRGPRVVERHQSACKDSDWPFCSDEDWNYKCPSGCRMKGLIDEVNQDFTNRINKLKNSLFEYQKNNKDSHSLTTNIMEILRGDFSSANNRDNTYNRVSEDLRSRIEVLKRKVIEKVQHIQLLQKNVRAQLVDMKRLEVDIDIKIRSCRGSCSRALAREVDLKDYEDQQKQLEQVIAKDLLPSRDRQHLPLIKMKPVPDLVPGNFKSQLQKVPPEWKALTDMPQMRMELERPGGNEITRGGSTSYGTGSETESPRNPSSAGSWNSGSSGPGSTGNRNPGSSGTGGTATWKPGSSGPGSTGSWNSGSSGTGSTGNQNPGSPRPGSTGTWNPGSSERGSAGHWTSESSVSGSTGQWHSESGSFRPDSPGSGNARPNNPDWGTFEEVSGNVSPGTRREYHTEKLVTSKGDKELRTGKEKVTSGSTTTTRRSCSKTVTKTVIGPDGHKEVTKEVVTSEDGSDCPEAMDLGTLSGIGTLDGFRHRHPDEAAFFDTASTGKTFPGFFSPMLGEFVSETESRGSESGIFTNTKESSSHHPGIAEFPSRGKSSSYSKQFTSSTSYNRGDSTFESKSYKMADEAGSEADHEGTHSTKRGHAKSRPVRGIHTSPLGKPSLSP
T3 sequence (looked up) 2: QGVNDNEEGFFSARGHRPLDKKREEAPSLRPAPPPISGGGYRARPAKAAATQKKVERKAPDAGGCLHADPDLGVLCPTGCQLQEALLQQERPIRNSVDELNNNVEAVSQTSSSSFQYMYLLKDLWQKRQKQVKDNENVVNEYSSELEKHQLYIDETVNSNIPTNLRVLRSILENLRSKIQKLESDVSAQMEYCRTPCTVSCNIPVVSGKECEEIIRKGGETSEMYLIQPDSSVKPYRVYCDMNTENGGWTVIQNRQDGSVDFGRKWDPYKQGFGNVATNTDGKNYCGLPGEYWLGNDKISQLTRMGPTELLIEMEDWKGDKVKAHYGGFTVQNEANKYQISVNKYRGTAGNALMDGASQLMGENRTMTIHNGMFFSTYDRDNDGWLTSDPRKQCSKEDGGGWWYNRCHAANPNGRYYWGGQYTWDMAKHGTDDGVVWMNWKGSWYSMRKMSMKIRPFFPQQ
T3 sequence (looked up) 3: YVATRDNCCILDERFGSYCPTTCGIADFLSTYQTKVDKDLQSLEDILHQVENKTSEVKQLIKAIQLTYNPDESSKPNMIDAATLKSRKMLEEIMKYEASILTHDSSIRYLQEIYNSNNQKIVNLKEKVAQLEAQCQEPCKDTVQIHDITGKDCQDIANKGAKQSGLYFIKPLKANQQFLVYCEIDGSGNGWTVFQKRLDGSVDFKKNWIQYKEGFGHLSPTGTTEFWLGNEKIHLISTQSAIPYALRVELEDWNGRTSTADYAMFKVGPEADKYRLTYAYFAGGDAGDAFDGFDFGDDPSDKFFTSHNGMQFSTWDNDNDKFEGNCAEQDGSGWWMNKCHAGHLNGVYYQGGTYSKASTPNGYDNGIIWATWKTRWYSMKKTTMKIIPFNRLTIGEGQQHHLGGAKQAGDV

human plasma fibronectin [4] = target: T1, human plasma fibronectin; test: ELISA; ECM protein coated at 100 nM, soluble protein 0-100 nM, one-site fit
Method: (§1) ELISA plates (Medium binding, Greiner bio-one) were coated with 100 nM of ECM proteins in 50 μl of PBS for 1 h at 37° C.; human plasma fibronectin (Sigma), human vitronectin (Peprotech), human tenascin C (R&D Systems), human fibrinogen (Enzyme Research Laboratories). Then, wells were washed with PBS-T (PBS with 0.05% Tween-20) and blocked with 300 l PBS-T containing 1% BSA for 1 h at room temperature. ECM and control wells (no ECM and blocked with BSA) were further incubated 1 h at room temperature with solutions of murine PDGF-BB (Peprotech), IL-1Ra (R&D Systems), or PIGF₁₂₃₋₁₄₁-fused proteins at concentrations ranging from 0 to 100 nM (50 μl in PBS-T containing 0.1% BSA; PROKEEP tubes, Watson bio lab). Then, wells were washed 3 times with PBS-T and bound PDGF-BB and IL-1Ra variants were detected using biotinylated antibodies in PBS-T containing 0.1% BSA. Antibodies used were from PDGF-BB DuoSet ELISA (R&D Systems, DY8464) for PDGF-BB and IL-1ra/IL-1F3 DuoSet ELISA (R&D Systems, DY480) for IL-1Ra. To calculate the dissociation constants (KD) specific-binding values were fitted with a one site specific binding model using A₄₅₀ nm=Bmax*[growth factors or IL-1Ra variants]/(KD+[growth factors or IL-1Ra variants]).

human vitronectin [5] = target: T2, human vitronectin; test: as above
Method: as §1

human tenascin C [6] = target: T4, human tenascin C (human, UniProt P24821 23-2201, limits assumed); test: as above
T4 construct: Coated on ELISA plates at 100 nM; also called TnC; Tnc
Method: as §1

human fibrinogen [7] = target: T3, human fibrinogen; test: as above
Method: as §1

human plasma fibronectin [8] = target: T1, human plasma fibronectin; test: ELISA, one site specific binding fit
human vitronectin [9] = target: T2, human vitronectin; test: ELISA, one site specific binding fit
human tenascin C [10] = target: T4, human tenascin C; test: ELISA, one site specific binding fit
human fibrinogen [11] = target: T3, human fibrinogen; test: ELISA, one site specific binding fit
human plasma fibronectin [12] = target: T1, human plasma fibronectin; test: ELISA; GST-fused fragment at 100 nM on coated ECM protein, anti-GST detection
Method: (§2) ELISA plates (96-Well Medium Binding, Greiner bio-one) were coated with solutions of 100 nM of human plasma fibronectin (Sigma), human vitronectin (Peprotech), human tenascin C (R&D Systems), or human fibrinogen (Enzyme Research Laboratories) in PBS for 1 h at 37° C. Wells were washed with washing buffer (PBS-T, PBS with 0.05% Tween-20) and blocked with 1% BSA in PBS-T for 1 h at room temperature. Then, wells were incubated with 100 nM of GST-fused PIGF fragments (in PBS-T with 0.1% BSA) for 1 h at room temperature. GST (100 nM) was used as negative control. Wells were washed 3 times with washing buffer and incubated with 0.1 μg/ml of HRP-conjugated antibody against GST (GE Healthcare, RPN1236V) in PBS-T with 0.1% BSA for 45 min at room temperature. Wells were washed 3 times with PBS-T and detection was done with tetramethylbenzidine substrate and measurement of the absorbance at 450 nm.

human vitronectin [13] = target: T2, human vitronectin; test: as above
Method: as §2

human fibrinogen [14] = target: T3, human fibrinogen; test: as above
Method: as §2

T2 sequence (P04004 20-478 limits assumed): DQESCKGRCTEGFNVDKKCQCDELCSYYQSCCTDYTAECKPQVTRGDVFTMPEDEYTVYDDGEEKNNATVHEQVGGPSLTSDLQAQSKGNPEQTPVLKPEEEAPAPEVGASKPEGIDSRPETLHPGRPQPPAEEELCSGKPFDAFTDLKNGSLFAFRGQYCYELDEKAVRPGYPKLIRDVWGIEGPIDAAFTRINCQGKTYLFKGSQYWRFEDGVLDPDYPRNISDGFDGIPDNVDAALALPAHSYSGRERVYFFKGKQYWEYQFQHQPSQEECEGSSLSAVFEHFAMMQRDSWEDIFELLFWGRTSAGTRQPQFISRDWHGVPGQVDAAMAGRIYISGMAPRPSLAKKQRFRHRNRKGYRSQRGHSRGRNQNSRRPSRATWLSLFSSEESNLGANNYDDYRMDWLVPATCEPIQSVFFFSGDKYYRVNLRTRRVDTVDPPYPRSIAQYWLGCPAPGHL
T1 sequence (P02751 other isoform, or with tags, fused parts or gaps limits assumed): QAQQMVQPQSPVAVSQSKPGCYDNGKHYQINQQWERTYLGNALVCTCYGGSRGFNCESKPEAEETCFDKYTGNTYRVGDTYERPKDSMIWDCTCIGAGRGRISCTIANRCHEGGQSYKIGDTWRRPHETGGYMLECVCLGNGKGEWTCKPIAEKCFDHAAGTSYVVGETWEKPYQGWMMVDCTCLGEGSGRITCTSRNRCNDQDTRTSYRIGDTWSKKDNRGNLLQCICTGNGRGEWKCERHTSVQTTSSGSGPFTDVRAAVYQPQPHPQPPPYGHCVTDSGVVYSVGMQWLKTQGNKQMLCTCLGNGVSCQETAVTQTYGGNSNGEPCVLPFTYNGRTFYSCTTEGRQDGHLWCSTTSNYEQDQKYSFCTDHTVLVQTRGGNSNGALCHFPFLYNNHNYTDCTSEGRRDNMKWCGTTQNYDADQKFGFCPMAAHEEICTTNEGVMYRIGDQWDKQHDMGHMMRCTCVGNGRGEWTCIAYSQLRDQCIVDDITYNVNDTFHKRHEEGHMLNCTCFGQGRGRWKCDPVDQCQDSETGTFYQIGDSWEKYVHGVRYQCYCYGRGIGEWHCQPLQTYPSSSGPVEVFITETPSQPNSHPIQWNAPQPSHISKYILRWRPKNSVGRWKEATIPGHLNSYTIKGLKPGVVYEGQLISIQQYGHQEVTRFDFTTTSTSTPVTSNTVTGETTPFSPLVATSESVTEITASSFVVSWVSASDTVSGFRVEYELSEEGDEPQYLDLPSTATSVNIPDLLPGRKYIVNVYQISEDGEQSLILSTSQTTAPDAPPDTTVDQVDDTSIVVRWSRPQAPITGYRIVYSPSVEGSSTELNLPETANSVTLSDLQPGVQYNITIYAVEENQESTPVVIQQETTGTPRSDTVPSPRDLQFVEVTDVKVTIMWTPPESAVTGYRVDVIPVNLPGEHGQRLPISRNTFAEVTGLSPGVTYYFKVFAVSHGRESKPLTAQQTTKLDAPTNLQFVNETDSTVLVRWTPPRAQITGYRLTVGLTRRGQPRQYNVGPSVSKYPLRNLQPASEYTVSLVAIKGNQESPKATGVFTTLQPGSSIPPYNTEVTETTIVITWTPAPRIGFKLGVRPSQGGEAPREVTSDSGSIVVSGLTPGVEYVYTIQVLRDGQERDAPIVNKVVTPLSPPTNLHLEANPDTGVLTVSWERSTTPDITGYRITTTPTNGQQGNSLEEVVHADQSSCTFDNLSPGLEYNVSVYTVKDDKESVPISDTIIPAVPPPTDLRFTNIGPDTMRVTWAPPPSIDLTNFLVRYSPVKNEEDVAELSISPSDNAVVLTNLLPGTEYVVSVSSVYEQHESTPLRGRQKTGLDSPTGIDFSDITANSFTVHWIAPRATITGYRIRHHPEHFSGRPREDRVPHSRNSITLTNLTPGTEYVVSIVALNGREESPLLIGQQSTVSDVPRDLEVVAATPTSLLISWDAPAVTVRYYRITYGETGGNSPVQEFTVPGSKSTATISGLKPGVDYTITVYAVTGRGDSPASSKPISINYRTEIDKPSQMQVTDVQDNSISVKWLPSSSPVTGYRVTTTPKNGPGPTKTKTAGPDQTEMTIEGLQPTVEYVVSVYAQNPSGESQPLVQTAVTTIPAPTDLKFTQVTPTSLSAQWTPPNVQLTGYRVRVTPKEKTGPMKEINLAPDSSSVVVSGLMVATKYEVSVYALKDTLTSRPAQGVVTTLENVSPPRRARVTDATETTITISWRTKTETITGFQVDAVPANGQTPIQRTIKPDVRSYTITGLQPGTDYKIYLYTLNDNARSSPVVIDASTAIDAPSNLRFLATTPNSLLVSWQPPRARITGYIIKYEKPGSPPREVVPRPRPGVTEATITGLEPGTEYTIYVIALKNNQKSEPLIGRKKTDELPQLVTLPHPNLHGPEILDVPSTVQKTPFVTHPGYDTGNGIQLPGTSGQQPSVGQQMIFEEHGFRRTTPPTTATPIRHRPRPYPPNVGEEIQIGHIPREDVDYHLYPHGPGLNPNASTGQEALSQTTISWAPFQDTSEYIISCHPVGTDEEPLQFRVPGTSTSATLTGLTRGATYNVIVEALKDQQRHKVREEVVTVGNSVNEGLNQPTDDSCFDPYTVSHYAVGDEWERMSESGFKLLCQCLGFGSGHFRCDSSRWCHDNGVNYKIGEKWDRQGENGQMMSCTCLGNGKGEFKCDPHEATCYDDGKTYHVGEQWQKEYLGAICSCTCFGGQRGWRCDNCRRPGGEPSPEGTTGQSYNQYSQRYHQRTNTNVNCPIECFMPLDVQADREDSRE
T4 sequence (P24821 23-2201 limits assumed): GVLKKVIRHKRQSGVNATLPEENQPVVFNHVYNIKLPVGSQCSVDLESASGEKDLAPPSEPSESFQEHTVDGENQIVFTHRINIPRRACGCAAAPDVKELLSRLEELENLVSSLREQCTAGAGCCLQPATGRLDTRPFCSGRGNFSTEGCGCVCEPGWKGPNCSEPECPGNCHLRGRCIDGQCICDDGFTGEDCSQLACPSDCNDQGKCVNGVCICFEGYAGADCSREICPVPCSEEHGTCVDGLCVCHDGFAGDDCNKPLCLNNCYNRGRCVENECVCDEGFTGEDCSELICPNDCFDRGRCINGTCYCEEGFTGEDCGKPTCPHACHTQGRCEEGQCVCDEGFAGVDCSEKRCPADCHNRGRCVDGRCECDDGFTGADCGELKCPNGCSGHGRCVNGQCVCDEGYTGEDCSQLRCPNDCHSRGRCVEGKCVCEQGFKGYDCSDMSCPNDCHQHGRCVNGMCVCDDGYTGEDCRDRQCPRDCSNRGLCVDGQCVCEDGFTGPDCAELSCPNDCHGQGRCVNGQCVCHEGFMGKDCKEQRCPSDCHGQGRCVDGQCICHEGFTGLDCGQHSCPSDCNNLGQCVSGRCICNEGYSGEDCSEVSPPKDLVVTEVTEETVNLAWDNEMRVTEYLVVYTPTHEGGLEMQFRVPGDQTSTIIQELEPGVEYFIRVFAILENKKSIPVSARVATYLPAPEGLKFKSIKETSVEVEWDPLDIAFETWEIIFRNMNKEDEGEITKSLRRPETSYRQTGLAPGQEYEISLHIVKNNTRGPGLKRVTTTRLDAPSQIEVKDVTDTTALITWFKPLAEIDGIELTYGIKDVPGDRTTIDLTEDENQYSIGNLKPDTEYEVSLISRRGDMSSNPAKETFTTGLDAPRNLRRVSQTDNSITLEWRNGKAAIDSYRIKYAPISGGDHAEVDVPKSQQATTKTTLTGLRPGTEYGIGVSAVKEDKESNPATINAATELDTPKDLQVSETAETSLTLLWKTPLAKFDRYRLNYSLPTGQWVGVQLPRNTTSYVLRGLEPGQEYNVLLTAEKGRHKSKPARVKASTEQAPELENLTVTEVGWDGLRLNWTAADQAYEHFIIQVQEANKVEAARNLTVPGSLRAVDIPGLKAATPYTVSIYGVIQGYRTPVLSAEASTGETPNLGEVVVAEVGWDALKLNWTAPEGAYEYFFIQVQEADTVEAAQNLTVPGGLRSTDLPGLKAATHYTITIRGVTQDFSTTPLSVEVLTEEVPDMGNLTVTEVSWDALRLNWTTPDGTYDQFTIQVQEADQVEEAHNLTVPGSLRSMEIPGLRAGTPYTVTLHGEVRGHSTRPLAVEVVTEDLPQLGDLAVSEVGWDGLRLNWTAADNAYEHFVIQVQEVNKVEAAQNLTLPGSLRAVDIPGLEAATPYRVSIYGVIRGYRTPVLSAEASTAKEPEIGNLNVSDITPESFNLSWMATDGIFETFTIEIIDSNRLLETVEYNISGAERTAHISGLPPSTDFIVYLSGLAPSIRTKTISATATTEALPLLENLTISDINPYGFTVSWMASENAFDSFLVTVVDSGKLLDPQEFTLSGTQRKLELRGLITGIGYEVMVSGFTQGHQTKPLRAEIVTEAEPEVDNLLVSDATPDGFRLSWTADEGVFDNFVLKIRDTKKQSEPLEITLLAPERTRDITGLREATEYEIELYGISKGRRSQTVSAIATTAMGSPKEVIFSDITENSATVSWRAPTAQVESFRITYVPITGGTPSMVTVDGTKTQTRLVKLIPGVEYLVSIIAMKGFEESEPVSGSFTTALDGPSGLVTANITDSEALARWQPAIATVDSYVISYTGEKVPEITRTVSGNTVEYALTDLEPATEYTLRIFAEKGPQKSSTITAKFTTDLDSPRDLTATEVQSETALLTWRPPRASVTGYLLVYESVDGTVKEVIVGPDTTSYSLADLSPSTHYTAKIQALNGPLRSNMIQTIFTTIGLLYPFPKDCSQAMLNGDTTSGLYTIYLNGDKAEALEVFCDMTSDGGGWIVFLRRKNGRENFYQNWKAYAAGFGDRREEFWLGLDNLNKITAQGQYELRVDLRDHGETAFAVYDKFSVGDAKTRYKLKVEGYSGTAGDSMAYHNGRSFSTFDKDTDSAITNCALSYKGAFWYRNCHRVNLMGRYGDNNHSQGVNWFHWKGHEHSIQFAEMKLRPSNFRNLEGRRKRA

B1: NRTN146-157 fragment (GST-fused construct from pGEX6P-1) (peptide)
chain: RRLRQRRRLRRE
modifications: also: fused to GST (vector linker letters not given here), letters not given here
notes: Cloned into pGEX6P-1, expressed in E. coli BL21, and purified on GSTrap and His-tag columns; not shown: GST encoded by the expression vector pGEX6P-1; a His tag is implied by purification on a His-tag HP column
- binding result (human plasma fibronectin [1]): binds
- binding result (human vitronectin [2]): binds
- binding result (human fibrinogen [3]): binds

B2: PDGF-BB/PIGF123-141 (other)
chain: SLGSLAAAEPAVIAECKTRTEVFQISRNLIDRTNANFLVWPPCVEVQRCSGCCNNRNVQCRASQVQMRPVQVRKIEIVRKKPIFKKATVTLEDHLACKCETIVTPRPVTRRRPKGRGKRRREKQRPTD
notes: not shown: 6x histidine tag at the N-terminus
- Kd (human plasma fibronectin [4]): 17.7 nM
- Kd (human vitronectin [5]): 1.4 nM
- Kd (human tenascin C [6]): 25 nM
- Kd (human fibrinogen [7]): 16.7 nM

B3: IL-1Ra (murine wild-type interleukin-1 receptor antagonist) (ligand)
chain: MRPSGKRPCKMQAFRIWDTNQKTFYLRNNQLIAGYLQGPNIKLEEKIDMVPIDLHSVFLGIHGGKLCLSCAKSGDDIKLQLEEVNITDLSKNKEEDKRFTFIRSEKGPTTSFESAACPGWFLCTTLEADRPVSLTNTPEEPLIVTKFYFQEDQ
notes: also called wild-type IL-1Ra; IL-1 receptor antagonist
- Kd (human plasma fibronectin [4]): 129 nM
- Kd (human vitronectin [5]): 73.2 nM
- Kd (human tenascin C [6]): 113 nM
- Kd (human fibrinogen [7]): 663 nM

B4: neurturin (NRTN) (ligand, UniProt Q99748 96-197, looked up)
chain: ARLGARPCGLRELEVRVSELGLGYASDETVLFRYCAGACEAAARVYDLGLRRLRQRRRLRRERVRAQPCCRPTAYEDEVSFLDAHSRYHTVHELSARECACV
- Kd (human plasma fibronectin [8]): 50.1 nM
- Kd (human vitronectin [9]): 27.6 nM

B5: Placenta growth factor-2 (PIGF-2) (ligand)
chain: LPAVPPQQWALSAGNGSSEVEVVPFQEVWGRSYCRALERLVDVVSEYPSEVEHMFSPSCVSLLRCTGCCGDENLHCVPVETANVTMQLLKIRSGDRPSYVELTFSQHVRCECRPLREKMKPERRRPKGRGKRRREKQRPTDCHLCGDAVPRR
- Kd (human plasma fibronectin [8]): 11.6 nM
- Kd (human vitronectin [9]): 13.9 nM
- Kd (human tenascin C [10]): 16.6 nM
- Kd (human fibrinogen [11]): 9.9 nM

B6: PDGF-BB (murine wild-type platelet-derived growth factor-BB) (ligand, UniProt P31240 82-190, looked up)
chain: SLGSLAAAEPAVIAECKTRTEVFQISRNLIDRTNANFLVWPPCVEVQRCSGCCNNRNVQCRASQVQMRPVQVRKIEIVRKKPIFKKATVTLEDHLACKCETIVTPRPVT
notes: also called wild-type PDGF-BB
- Kd (human plasma fibronectin [4]): 67.5 nM
- Kd (human vitronectin [5]): 32.1 nM
- Kd (human tenascin C [6]): 94.3 nM
- Kd (human fibrinogen [7]): 206 nM

B7: amphiregulin (AREG) (ligand, UniProt P15514 101-198, looked up)
chain: SVRVEQVVKPPQNKTESENTSDKPKRKKKGGKNGKNRRNRKKKNPCNAEFQNFCIHGECKYIEHLEAVTCKCQQEYFGERCGEKSMKTHSMIDSSLSK
- Kd (human plasma fibronectin [8]): 8.6 nM
- Kd (human vitronectin [9]): 13.8 nM
- Kd (human tenascin C [10]): 36.8 nM
- Kd (human fibrinogen [11]): 8.2 nM

B8: GST-fused PIGF123-141 fragment (peptide)
chain: RRRPKGRGKRRREKQRPTD-6xHis
modifications: not fully specified (N-terminus); also: fused to GST (vector linker letters not given here)
notes: Expressed in E. coli BL21 (DE3), purified on GSTrap and then HisTrap, and used at 100 nM in the ELISA; not shown: glutathione S-transferase (GST) encoded by the expression vector pGEX6P-1; histidine tag (6xHis) added at the C-terminus of the fragment
- binding result (human plasma fibronectin [12]): binds
- binding result (human vitronectin [13]): binds
- binding result (human fibrinogen [14]): binds

B9: AREG126-138 fragment (GST-fused construct from pGEX6P-1) (peptide)
chain: RKKKGGKNGKNRR
modifications: also: fused to GST (vector linker letters not given here), letters not given here
notes: as for B1
- binding result (human plasma fibronectin [1]): binds
- binding result (human vitronectin [2]): binds
- binding result (human fibrinogen [3]): binds

B10: IL-1Ra/PIGF123-141 (other)
chain: MNHKVHHHHHHMRPSGKRPCKMQAFRIWDTNQKTFYLRNNQLIAGYLQGPNIKLEEKIDMVPIDLHSVFLGIHGGKLCLSCAKSGDDIKLQLEEVNITDLSKNKEEDKRFTFIRSEKGPTTSFESAACPGWFLCTTLEADRPVSLTNTPEEPLIVTKFYFQEDQRRRPKGRGKRRREKQRPTD
- Kd (human plasma fibronectin [4]): 21.9 nM
- Kd (human vitronectin [5]): 0.7 nM
- Kd (human tenascin C [6]): 20.7 nM
- Kd (human fibrinogen [7]): 43.5 nM
